US20190247432A1 (published 2019)

Target: T1, NY-ESO-1 (the LAGE-1S transcript variant shares the same epitope) peptide on HLA-A*02:01 (human)
T1 peptide: SLLMWITQC
Experiment: multimer staining

binding result: recognises
B1: 8F NY-ESO-1 TCR (TCR, V domains shown)
Valpha: EEDPQALSIQEGENATMNCSYKTSINNLQWYRQNSGRGLVHLILIRSNEREKHSGRLRVTLDTSKKSSSLLITASRAADTASYFCATDGAGKSTFGDGTTLTVKP
Vbeta: VIQSPRHEVTEMGQEVTLRCKPISGHDYLFWYRQTMMRGLELLIYFNNNVPIDDSGMPEDRFSAKMPNASFSTLKIQPSEPRDSAVYFCASTIGAQPQHFGDGTRLSIL
